# Data from PMC11711613.
# Several values for one entry are separate records, joined by “and”; a condition that tells them apart may be missing. Equal values may be shown once.
# How the values were obtained:
# [1] = target: RctB domain IV (RctB^IV, amino acids 532 to 658) (Vibrio cholerae N16961); assay: SEC; analytical SEC, Superdex 200 10/300, 50 mM Hepes, 200 mM NaCl, 2 mM MgCl2, 1 mM TCEP, calibrated with gel filtration standards
# [2] = target: RctB, full length (Vibrio cholerae N16961); assay: as above
# [3] = target: RctB, full length (Vibrio cholerae N16961); assay: cryo-EM 2D class averages; RctB at 0.25 mg/ml in 50 mM Hepes, 200 mM NaCl, 2 mM MgCl2, 1 mM TCEP; reference-free 2D classification
Substance,stoichiometry N [1],stoichiometry N [2],stoichiometry N [3]
"RctB domain IV (RctB^IV, amino acids 532 to 658) (domain or fragment)",2,–,–
"RctB, full length (natural protein)",–,2 and 4,2 and 4
